According to patent publication US20190322730A1 (NGM BIOPHARMACEUTICALS, published 2019):

Legend:
[1] = target: T1, human complement component C3 (human, UniProt P01024 23-667; P01024 672-1663); assay: cell-based or functional assay
[2] = target: T2, cynomolgus monkey complement component C3 (cynomolgus monkey, UniProt P01024 24-1663 (human entry)); assay: cell-based or functional assay
[3] = target: T1, human complement component C3; assay: binding screen of Example 5; method and unit not stated
C3a = C3a (human, UniProt P01024 672-748); assay: as above
Chain of C3a (P01024 672-748 limits assumed): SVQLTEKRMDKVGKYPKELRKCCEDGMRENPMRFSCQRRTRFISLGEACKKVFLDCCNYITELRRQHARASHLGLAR

C3b = C3b (human, UniProt P01024 23-667; P01024 749-1663); assay: as above
Chain of C3b (P01024 23-667 limits assumed, chain 1 of 2): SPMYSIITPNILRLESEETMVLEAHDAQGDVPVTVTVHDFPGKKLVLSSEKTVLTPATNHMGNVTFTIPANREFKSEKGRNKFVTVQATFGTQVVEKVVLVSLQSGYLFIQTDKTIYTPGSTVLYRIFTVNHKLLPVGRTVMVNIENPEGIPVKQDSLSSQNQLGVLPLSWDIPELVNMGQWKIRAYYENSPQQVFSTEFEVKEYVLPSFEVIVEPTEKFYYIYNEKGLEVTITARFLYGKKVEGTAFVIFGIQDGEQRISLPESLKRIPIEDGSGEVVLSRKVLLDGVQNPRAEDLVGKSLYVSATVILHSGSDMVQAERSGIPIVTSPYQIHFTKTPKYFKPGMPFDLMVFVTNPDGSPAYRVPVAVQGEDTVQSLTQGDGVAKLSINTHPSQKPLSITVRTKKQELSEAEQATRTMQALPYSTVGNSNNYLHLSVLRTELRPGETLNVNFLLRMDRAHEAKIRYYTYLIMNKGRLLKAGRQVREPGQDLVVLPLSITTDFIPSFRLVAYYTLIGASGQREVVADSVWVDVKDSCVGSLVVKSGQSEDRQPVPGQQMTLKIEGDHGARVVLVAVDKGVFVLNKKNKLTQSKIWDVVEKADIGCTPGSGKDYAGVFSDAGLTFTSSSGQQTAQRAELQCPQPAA
Chain of C3b (P01024 749-1663 limits assumed, chain 2 of 2): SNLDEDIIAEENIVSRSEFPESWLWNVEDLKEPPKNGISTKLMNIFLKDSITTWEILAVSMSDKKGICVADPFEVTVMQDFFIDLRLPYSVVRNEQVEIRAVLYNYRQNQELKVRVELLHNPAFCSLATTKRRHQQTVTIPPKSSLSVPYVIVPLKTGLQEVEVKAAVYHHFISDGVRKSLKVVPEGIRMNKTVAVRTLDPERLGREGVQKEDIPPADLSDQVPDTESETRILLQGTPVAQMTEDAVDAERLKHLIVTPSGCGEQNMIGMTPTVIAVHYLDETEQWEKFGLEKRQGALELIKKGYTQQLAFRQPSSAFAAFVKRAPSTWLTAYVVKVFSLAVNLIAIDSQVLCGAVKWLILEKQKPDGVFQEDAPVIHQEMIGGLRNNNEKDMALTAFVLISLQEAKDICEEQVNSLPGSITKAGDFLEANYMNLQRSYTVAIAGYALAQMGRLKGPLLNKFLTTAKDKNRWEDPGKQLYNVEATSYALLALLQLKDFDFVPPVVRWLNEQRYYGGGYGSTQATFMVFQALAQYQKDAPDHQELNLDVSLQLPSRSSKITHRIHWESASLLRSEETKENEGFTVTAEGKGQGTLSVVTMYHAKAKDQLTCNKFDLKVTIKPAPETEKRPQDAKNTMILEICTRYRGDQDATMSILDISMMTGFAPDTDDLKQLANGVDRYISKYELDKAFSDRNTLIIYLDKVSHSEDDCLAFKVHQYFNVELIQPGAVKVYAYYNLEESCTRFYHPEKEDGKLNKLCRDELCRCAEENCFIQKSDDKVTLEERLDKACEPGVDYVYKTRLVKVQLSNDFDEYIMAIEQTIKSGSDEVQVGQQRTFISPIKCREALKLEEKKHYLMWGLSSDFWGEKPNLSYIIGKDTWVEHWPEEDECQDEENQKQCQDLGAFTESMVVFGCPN

C3d = target: T3, C3d (UniProt P01024 1002-1303, limits assumed); assay: as above
T3 construct: domain: C3d
T3 sequence (P01024 1002-1303 limits assumed): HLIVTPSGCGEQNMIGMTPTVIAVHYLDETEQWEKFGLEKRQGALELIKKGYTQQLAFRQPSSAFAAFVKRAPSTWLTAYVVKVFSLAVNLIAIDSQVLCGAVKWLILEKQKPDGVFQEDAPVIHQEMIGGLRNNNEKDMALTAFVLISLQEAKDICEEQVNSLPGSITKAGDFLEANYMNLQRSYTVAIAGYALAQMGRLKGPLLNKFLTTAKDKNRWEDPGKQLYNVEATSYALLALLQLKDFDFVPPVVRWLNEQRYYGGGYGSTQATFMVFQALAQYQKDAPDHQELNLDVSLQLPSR

Factor Bb = target: T4, Factor Bb (UniProt P00751 260-764); assay: as above
T4 construct: domain: Factor Bb

[4] = target: T1, human complement component C3; assay: SPR (Biacore)
Protocol: The binding affinities of exemplary anti-C3 antibodies to human C3 and cyno C3 were measured using a Biacore system (GE Healthcare LifeSciences). Briefly, anti-Fc antibody (Sigma-Aldrich) was immobilized on all four flow cells of a CM5 chip using amine coupling reagents (GE Healthcare LifeSciences). Antibodies were captured on flow cells 2, 3, and 4 using flow cell 1 as a reference. Concentrations ranging from 0.62-40 nM of human C3 or cyno C3 were injected at a flow rate of 50 μL/min at 37° C. Kinetic data were collected over time and fit using the simultaneous global fit equation to yield affinity constants (KD values) for each antibody.

[5] = target: T1, human complement component C3; assay: cell-based or functional assay; remark: listed apart in the source
[6] = target: T2, cynomolgus monkey complement component …; assay: cell-based or functional assay; remark: listed apart in the source
[7] = target: T1, human complement component C3; assay: cell-based or functional assay; remark: listed apart in the source

T2 sequence (P01024 other isoform, or with tags, fused parts or gaps): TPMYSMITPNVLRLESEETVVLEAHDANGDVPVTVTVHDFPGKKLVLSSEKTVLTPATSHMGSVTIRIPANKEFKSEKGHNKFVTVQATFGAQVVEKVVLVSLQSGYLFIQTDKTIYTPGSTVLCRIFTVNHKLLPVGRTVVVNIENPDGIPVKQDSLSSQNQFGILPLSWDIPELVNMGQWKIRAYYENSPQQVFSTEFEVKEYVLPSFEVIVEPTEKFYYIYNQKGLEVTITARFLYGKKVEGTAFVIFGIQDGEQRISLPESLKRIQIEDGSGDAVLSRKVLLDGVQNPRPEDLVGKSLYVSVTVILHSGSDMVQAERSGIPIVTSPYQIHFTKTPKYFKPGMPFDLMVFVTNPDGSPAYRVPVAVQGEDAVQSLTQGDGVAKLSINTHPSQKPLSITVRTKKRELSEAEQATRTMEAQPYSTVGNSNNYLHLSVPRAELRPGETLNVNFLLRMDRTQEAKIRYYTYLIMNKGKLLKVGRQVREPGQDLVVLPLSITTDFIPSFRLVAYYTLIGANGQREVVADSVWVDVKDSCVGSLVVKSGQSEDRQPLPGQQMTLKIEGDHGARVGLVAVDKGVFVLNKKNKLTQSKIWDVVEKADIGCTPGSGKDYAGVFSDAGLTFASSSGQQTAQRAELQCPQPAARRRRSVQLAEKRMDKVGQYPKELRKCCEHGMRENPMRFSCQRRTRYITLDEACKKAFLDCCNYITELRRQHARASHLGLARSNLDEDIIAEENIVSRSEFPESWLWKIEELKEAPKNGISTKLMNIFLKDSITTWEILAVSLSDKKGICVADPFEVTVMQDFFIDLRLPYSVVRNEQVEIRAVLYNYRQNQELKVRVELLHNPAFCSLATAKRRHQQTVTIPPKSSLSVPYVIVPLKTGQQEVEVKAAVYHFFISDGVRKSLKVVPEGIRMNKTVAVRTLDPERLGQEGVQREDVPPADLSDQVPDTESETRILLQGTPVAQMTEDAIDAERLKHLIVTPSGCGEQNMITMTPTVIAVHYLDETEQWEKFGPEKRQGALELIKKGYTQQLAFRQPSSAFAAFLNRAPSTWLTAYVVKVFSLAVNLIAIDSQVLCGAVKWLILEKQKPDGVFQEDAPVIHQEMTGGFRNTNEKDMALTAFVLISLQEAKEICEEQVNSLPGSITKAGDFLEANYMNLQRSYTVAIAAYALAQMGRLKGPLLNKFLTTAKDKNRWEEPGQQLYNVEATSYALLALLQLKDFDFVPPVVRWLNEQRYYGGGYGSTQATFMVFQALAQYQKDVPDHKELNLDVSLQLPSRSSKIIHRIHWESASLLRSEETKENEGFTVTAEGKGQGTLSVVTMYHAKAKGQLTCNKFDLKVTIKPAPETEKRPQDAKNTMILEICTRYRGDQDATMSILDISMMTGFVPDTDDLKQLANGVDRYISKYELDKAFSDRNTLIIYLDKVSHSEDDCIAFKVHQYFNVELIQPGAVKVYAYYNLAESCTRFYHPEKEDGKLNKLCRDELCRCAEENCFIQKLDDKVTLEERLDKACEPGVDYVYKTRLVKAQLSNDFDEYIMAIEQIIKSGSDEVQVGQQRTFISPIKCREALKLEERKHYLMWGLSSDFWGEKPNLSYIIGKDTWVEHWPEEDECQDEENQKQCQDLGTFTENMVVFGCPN
T1 sequence (P01024 23-667, chain 1 of 2): as the sequence (P01024 23-667 limits assumed, chain 1 of 2) above
T1 sequence (P01024 672-1663, chain 2 of 2): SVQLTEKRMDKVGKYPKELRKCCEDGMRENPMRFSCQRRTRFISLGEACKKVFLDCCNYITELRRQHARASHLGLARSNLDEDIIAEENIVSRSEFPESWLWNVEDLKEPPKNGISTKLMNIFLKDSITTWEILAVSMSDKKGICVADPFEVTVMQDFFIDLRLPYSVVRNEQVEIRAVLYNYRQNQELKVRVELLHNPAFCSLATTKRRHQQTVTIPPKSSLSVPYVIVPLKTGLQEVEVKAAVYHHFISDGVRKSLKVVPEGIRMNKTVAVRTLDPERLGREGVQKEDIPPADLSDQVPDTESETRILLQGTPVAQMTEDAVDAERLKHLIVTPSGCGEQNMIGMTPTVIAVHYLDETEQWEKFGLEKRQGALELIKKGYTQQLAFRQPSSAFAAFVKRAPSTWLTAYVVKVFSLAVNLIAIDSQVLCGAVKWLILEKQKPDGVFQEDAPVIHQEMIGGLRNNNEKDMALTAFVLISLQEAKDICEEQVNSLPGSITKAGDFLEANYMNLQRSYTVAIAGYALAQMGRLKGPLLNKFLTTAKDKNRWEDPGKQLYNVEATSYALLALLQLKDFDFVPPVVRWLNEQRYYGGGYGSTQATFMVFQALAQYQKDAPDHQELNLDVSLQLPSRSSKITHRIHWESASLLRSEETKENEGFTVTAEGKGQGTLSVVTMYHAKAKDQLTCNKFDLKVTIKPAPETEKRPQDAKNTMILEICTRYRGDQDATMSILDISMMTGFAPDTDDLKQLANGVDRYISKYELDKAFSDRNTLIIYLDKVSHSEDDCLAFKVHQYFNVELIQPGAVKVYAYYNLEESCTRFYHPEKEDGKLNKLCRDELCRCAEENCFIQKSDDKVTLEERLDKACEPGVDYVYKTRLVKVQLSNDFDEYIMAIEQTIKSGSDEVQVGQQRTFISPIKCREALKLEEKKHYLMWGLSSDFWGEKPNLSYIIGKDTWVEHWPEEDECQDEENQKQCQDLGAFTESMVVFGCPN

B1: antibody 62F2 (antibody, V domains shown)
VH: DVQLQESGPDLVKPSQSLSLTCTVTGYSITSGYSLHWIRQFPGNKLEWMGYIHYSGSTNYNPSLKSRISITRDTSKNQFFLKLNSVTSEDTATYHCARAWDYLDYWGQGTTLTVSS
VL: DIQMTQSPASLSASVGETVTITCRASENIYSQLAWYQQKQGKSPQLLVYDAKTLAEGVPSRFSGSGSDTQFSLKIISLQPEDFGRYYCHHHFGILYTFGGGTKLEMK
notes: Mouse hybridoma antibody
Hemolytic Assay IC50, Human AP [1]: 5.7 nM | Hemolytic Assay IC50, Human CP [1]: 5 nM | Hemolytic Assay IC50, Cyno AP [2]: 8.7 nM | Hemolytic Assay IC50, Cyno CP [2]: 5.3 nM | binding relative to negative control mIgG2 [3]: 0.7 | binding relative to negative control mIgG2 (C3a): -0.04 | binding relative to negative control mIgG2 (C3b): 0.61 | binding relative to negative control mIgG2 (C3d): 0.01

B2: antibody 63A3 (antibody, V domains shown)
VH: DVQLQESGPGLVKPSQSLSLTCSVTGYSITSGYYWNWIRQFPGNKLEWMGYIRYDGSNNYNPSLKNRISITRDTSKNQVFLKLNSVTPEDTATYYCARHYGYDGGAFDFWGQGTTLTVSS
VL: DIQMTQSPASLSASVGETVTITCRTSENIYNYLVWYQQKQGKSPQLLVYNAKTLEEGVPSRFSGSGSGTQFSLKVNSLQPEDFGSYYCQHHYGTPFTFGSGTKLEIK
notes: Mouse hybridoma antibody
Hemolytic Assay IC50, Human AP [1]: 6.5 nM | Hemolytic Assay IC50, Human CP [1]: 4.1 nM | Hemolytic Assay IC50, Cyno AP [2]: 3.4 nM | Hemolytic Assay IC50, Cyno CP [2]: 1.6 nM | binding relative to negative control mIgG2 [3]: 0.95 | binding relative to negative control mIgG2 (C3a): -0.02 | binding relative to negative control mIgG2 (C3b): 0.83 | binding relative to negative control mIgG2 (C3d): 0.01

B3: antibody 3G8 (antibody, V domains shown)
VH: EIQLQQSGAELVKPGASVKISCMASGYSFTGYNMNWVKQSHGKGLEWIGNINPYYDSTSYNQKFKGKATLTVDKSSSTAYMQLNSLTSEDSAVYYCARENYDFVGFAYWGQGTLVTVSA
VL: QIVLSQSPAILSASPGEKVTMTCRASSSVSYMHWFQQKPGSSPKPWIYVTSNLASGVPPRFSGSGSGTSYSLTISRVEAEDAATYYCQQWSTNPLTFGAGTKLELK
notes: Mouse hybridoma antibody
Hemolytic Assay IC50, Human AP [1]: 6.8 nM | Hemolytic Assay IC50, Human CP [1]: 10.4 nM | Hemolytic Assay IC50, Cyno AP [2]: 20.9 nM | Hemolytic Assay IC50, Cyno CP [2]: 102 nM | binding relative to negative control mIgG2 [3]: 0.37 | binding relative to negative control mIgG2 (C3a): -0.01 | binding relative to negative control mIgG2 (C3b): 0.33 | binding relative to negative control mIgG2 (C3d): 0

B4: antibody 38F5 (antibody, V domains shown)
VH: EVMLVESGGALVKPGGSLKLSCTASGFTFSNYAMSWVRQTPEKRLEWVAQTISSGGRYTYYPDSVKGRFTISRDNARNTLYLQMSSLRSEDTAMYYCVRRYYGNSYWYFDVWGAGTTVTVSS
VL: DIVMTQSPSSLSVSAGEKVTMNCKSSQSLLNSGNQKHYLTWYQQKPGQPPKLLIYGASTRGSGVPDRFTGSGSGTDFTLTISSVQAEDLAVYYCQNDHSYPYTFGGGTKLEIK
notes: Mouse hybridoma antibody
Hemolytic Assay IC50, Human AP [1]: 9.2 nM | Hemolytic Assay IC50, Human CP [1]: 6.7 nM | Hemolytic Assay IC50, Cyno AP [2]: 12.9 nM | Hemolytic Assay IC50, Cyno CP [2]: 2.3 nM | binding relative to negative control mIgG2 [3]: 0.83 | binding relative to negative control mIgG2 (C3a): 0 | binding relative to negative control mIgG2 (C3b): 0.66 | binding relative to negative control mIgG2 (C3d): 0.01 | binding relative to negative control mIgG2 (Factor Bb): -0.01

B5: antibody Hz38G10(G56A) (antibody, human IgG1, kappa, V domains shown)
VH: QVQLVQSGAEVKKPGASVKVSCKASGYTFTDFYMDWVRQAPGQRLEWMGYIYPHNAGTTYNQQFTGRVTITVDKSASTAYMELSSLRSEDTAVYYCARRGGFDFDYWGQGTLVTVSS
VL: DIQMTQSPSSLSASVGDRVTITCKASENVDTYVSWYQQKPGKAPKLLIYGASNRYTGVPSRFSGSGSGTDFTFTISSLQPEDIATYHCGQSHSYPLTFGQGTKLEIKR
notes: the light chain is the Hz38G10 light chain
Kd [4]: 0.27 nM | Alternative Pathway IC50 (hemolysis), Human C3 [5]: 3.9 nM | Classical Pathway IC50 (hemolysis), Human C3 [5]: 5.4 nM | Alternative Pathway IC50 (hemolysis), Cyno C3 [6]: 4.8 nM | Classical Pathway IC50 (hemolysis), Cyno C3 [6]: 0.6 nM

B6: antibody Hz38G10(N55D) (antibody, V domains shown)
VH: QVQLVQSGAEVKKPGASVKVSCKASGYTFTDFYMDWVRQAPGQRLEWMGYIYPHDGGTTYNQQFTGRVTITVDKSASTAYMELSSLRSEDTAVYYCARRGGFDFDYWGQGTLVTVSS
VL: DIQMTQSPSSLSASVGDRVTITCKASENVDTYVSWYQQKPGKAPKLLIYGASNRYTGVPSRFSGSGSGTDFTFTISSLQPEDIATYHCGQSHSYPLTFGQGTKLEIK
notes: Variant of Hz38G10 with N55D in the heavy chain CDR2, mimicking a fully deamidated molecule
binding result [4]: binds

B7: Fab version of Hz38G10 (Fab, V domains shown)
VH: QVQLVQSGAEVKKPGASVKVSCKASGYTFTDFYMDWVRQAPGQRLEWMGYIYPHNGGTTYNQQFTGRVTITVDKSASTAYMELSSLRSEDTAVYYCARRGGFDFDYWGQGTLVTVSS
VL: DIQMTQSPSSLSASVGDRVTITCKASENVDTYVSWYQQKPGKAPKLLIYGASNRYTGVPSRFSGSGSGTDFTFTISSLQPEDIATYHCGQSHSYPLTFGQGTKLEIK
AP human C3 IC50 (hemolysis) [7]: 16 nM | CP human C3 IC50 (hemolysis) [7]: 17.8 nM

B8: antibody Hz38G10(G56T) (antibody, V domains shown)
VH: QVQLVQSGAEVKKPGASVKVSCKASGYTFTDFYMDWVRQAPGQRLEWMGYIYPHNTGTTYNQQFTGRVTITVDKSASTAYMELSSLRSEDTAVYYCARRGGFDFDYWGQGTLVTVSS
VL: DIQMTQSPSSLSASVGDRVTITCKASENVDTYVSWYQQKPGKAPKLLIYGASNRYTGVPSRFSGSGSGTDFTFTISSLQPEDIATYHCGQSHSYPLTFGQGTKLEIK
notes: Variant of Hz38G10
Kd [4]: 0.23 nM

B9: antibody Hz38G10(N55Q) (antibody, V domains shown)
VH: QVQLVQSGAEVKKPGASVKVSCKASGYTFTDFYMDWVRQAPGQRLEWMGYIYPHQGGTTYNQQFTGRVTITVDKSASTAYMELSSLRSEDTAVYYCARRGGFDFDYWGQGTLVTVSS
VL: DIQMTQSPSSLSASVGDRVTITCKASENVDTYVSWYQQKPGKAPKLLIYGASNRYTGVPSRFSGSGSGTDFTFTISSLQPEDIATYHCGQSHSYPLTFGQGTKLEIK
notes: Variant of Hz38G10
Kd [4]: 0.82 nM

B10: antibody Hz38G10(N55E) (antibody, V domains shown)
VH: QVQLVQSGAEVKKPGASVKVSCKASGYTFTDFYMDWVRQAPGQRLEWMGYIYPHEGGTTYNQQFTGRVTITVDKSASTAYMELSSLRSEDTAVYYCARRGGFDFDYWGQGTLVTVSS
VL: DIQMTQSPSSLSASVGDRVTITCKASENVDTYVSWYQQKPGKAPKLLIYGASNRYTGVPSRFSGSGSGTDFTFTISSLQPEDIATYHCGQSHSYPLTFGQGTKLEIK
notes: Variant of Hz38G10
Kd [4]: 6.2 nM

B11: antibody 28C3 (antibody, V domains shown)
VH: QVQLQQSGPELVKPGASVKISCKASGYAFNSCWMNWVKQRPGKGLEWIGRIYPGDGDTNYNGKFKGKATLTADKSSTTAYMQLSSLTSEDSAVYFCAREGRNYGYEDYWGQGTTLTVSS
VL: DIVLTQSPASLAVSLGQRATISCKASQSVDYDGDSYMNWYQQKPGQPPKLLIYAASDLESGIPARFSGSGSGTDFTLNIHPVEEEDAATYYCQQANEDPRTFGGGTKLEIK
notes: Mouse hybridoma antibody
Hemolytic Assay IC50, Human AP [1]: 8 nM | Hemolytic Assay IC50, Human CP [1]: 6.5 nM | Hemolytic Assay IC50, Cyno AP [2]: 7.8 nM | Hemolytic Assay IC50, Cyno CP [2]: 3.4 nM | binding relative to negative control mIgG2 [3]: 0.66 | binding relative to negative control mIgG2 (C3a): 0.11 | binding relative to negative control mIgG2 (C3b): 0.09 | binding relative to negative control mIgG2 (C3d): 0.01

B12: antibody 27A8 (antibody, V domains shown)
VH: QVQLLQPGAEFVKPGASVKLSCKASGYTFTDYWINWVKQRPGQGLEWIGNIYPGSTSANYNEKFKSKATLTIDTSSITAYMQLSSLTSDDSAVYYCARYGYDSWFAYWGQGTLVTVSA
VL: DVVLTQTPLSLPVNIGDQASISCKSTKSLLNSDGFTYLDWFLQKPGQSPHLLIYLVSNRFSGIPDRFSGSGSETDFTLKISRVEAEDLGVYYCFQSNYLPLTFGSGTKLEIK
Hemolytic Assay IC50, Human AP [1]: 8.5 nM | Hemolytic Assay IC50, Human CP [1]: 7.6 nM | Hemolytic Assay IC50, Cyno AP [2]: 9.6 nM
